Measurements taken from article PMC8797792.

Target: GST-Fbw7 (residues 263 to 707)-Skp1 complex (UniProt Q969H0)
Experiment: AlphaScreen or HTRF

IC50: 1320 nM
Substance: Myc T58 degron peptide, monophosphorylated (pT58)
